Consider 9 molecules from patent US20180155451A1 (published 2018).

The target in assay [1] is T1, FcγRIa extracellular domain with C-terminal His tag (human, UniProt P12314 16-292).
T1 construct: extracellular domain; Soluble receptor expressed in FreeStyle293 cells, used as analyte in Biacore; also called FcgRI; CD64; not shown: His tag at the C terminus
The experiment in a line: SPR (Biacore), antibody captured via antigen peptide, FcγR as analyte; binding relative to GpH7-A5/GpH7-B3/GpL16-k0 = 100. (Surface plasmon resonance follows binding to a sensor surface in real time, without labels.)

In assay [2] the target is T2, FcγRIIb extracellular domain with C-terminal His tag (human, UniProt P31994 43-217).
T2 construct: extracellular domain; Soluble receptor expressed in FreeStyle293 cells, used as analyte in Biacore; also called FcgRIIb; CD32B; not shown: His tag at the C terminus
T2 sequence (looked up): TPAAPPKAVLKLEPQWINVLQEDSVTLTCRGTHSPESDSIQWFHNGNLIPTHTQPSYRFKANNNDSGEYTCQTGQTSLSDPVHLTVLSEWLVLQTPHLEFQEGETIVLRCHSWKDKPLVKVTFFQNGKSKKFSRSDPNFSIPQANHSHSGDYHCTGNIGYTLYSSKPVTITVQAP
Described as above.

The target of a further assay is T3, FcγRIIb (human, UniProt P31994 43-217).
T3 construct: extracellular domain; also called FcgRIIb; 2b; not shown: His tag at the C terminus
T3 sequence (looked up): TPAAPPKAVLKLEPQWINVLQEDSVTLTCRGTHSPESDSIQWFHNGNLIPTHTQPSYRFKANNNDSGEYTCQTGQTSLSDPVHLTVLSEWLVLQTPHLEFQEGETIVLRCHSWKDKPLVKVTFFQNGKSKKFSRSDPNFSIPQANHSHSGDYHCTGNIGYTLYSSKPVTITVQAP
The experiment in a line: SPR (Biacore), antibody captured, FcγR as analyte; binding as % of GpH7-A5/GpH7-B3/GpL16-k0.

Another assay addresses T4, FcγRIa (human, UniProt P12314 16-292).
T4 construct: extracellular domain; also called FcgRI; 1a; not shown: His tag at the C terminus
The description is as above.

T1 sequence (P12314 16-292): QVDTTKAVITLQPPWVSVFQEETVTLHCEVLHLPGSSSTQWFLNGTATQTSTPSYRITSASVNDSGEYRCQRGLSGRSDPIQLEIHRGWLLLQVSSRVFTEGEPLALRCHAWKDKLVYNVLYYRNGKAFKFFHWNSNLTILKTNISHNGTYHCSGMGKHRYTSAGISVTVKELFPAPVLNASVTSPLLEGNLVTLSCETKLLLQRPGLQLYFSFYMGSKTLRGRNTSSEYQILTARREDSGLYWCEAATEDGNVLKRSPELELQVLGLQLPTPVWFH
T4 sequence (P12314 16-292): as above

B1: GpH7-A5/GpH7-B3 variant P271_14T/GpL16-k0 (antibody, human IgG1, kappa)
heavy 1: not shown
heavy 2: not shown
light: DIVMTQSPLSLPVTPGEPASISCQASESLVHSNRNTYLHWYLQKPGQSPQLLIYKVSNRFSGVPDRFSGSGSGTDFTLKISRVEAEDVGVYYCSQNTHVPPTFGQGTKVEIERTVAAPSVFIFPPSDEQLKSGTASVVCLLNNFYPREAKVQWKVDNALQSGNSQESVTEQDSKDSTYSLSSTLTLSKADYEKHKVYACEVTHQGLSSPVTKSFNRGEC
notes: Heterodimerized anti-glypican-3 IgG1; substitution in only one H chain; also called P271T; He Ab
For B1, the He/Con_1a in assay [1] was 102 % of control (GpH7-A5/GpH7-B3/GpL16-k0 = 100). Further, the He/Con_2b in assay [2] is 95.4 % of control (GpH7-A5/GpH7-B3/GpL16-k0 = 100).

B2: GpH7-A5/GpH7-B3 variant Q295_04F/GpL16-k0 (antibody, human IgG1, kappa)
heavy 1: not shown
heavy 2: not shown
light: DIVMTQSPLSLPVTPGEPASISCQASESLVHSNRNTYLHWYLQKPGQSPQLLIYKVSNRFSGVPDRFSGSGSGTDFTLKISRVEAEDVGVYYCSQNTHVPPTFGQGTKVEIERTVAAPSVFIFPPSDEQLKSGTASVVCLLNNFYPREAKVQWKVDNALQSGNSQESVTEQDSKDSTYSLSSTLTLSKADYEKHKVYACEVTHQGLSSPVTKSFNRGEC
notes: Heterodimerized anti-glypican-3 IgG1; substitution in only one H chain; also called Q295F; He Ab
Consider B2, for which the He/Con_1a in assay [1] was 102 % of control (GpH7-A5/GpH7-B3/GpL16-k0 = 100). Besides, the He/Con_2b in assay [2] was 64.7 % of control (GpH7-A5/GpH7-B3/GpL16-k0 = 100).

B3: GpH7-A5/GpH7-B3 variant P271_15Y/GpL16-k0 (antibody, human IgG1, kappa)
heavy 1: not shown
heavy 2: not shown
light: DIVMTQSPLSLPVTPGEPASISCQASESLVHSNRNTYLHWYLQKPGQSPQLLIYKVSNRFSGVPDRFSGSGSGTDFTLKISRVEAEDVGVYYCSQNTHVPPTFGQGTKVEIERTVAAPSVFIFPPSDEQLKSGTASVVCLLNNFYPREAKVQWKVDNALQSGNSQESVTEQDSKDSTYSLSSTLTLSKADYEKHKVYACEVTHQGLSSPVTKSFNRGEC
notes: Heterodimerized anti-glypican-3 IgG1; substitution in only one H chain; also called P271Y; He Ab
Regarding B3, the He/Con_1a in assay [1] was 103 % of control (GpH7-A5/GpH7-B3/GpL16-k0 = 100). For the same molecule, the He/Con_2b in assay [2] was 52.3 % of control (GpH7-A5/GpH7-B3/GpL16-k0 = 100).

B4: GpH7-A5/GpH7-B3 variant P331_06M/GpL16-k0 (antibody, human IgG1, kappa)
heavy 1: not shown
heavy 2: not shown
light: DIVMTQSPLSLPVTPGEPASISCQASESLVHSNRNTYLHWYLQKPGQSPQLLIYKVSNRFSGVPDRFSGSGSGTDFTLKISRVEAEDVGVYYCSQNTHVPPTFGQGTKVEIERTVAAPSVFIFPPSDEQLKSGTASVVCLLNNFYPREAKVQWKVDNALQSGNSQESVTEQDSKDSTYSLSSTLTLSKADYEKHKVYACEVTHQGLSSPVTKSFNRGEC
notes: heterodimerized IgG1; alteration in the GpH7-B3 H chain only; also called He Ab
As for B4, the He/Con_2b in the assay with FcγRIIb is 102 % of control. Further, the He/Con_1a with FcγRIa was 93.6 % of control.

B5: GpH7-A5/GpH7-B3 variant P271_18N/GpL16-k0 (antibody, human IgG1, kappa)
heavy 1: not shown
heavy 2: not shown
light: DIVMTQSPLSLPVTPGEPASISCQASESLVHSNRNTYLHWYLQKPGQSPQLLIYKVSNRFSGVPDRFSGSGSGTDFTLKISRVEAEDVGVYYCSQNTHVPPTFGQGTKVEIERTVAAPSVFIFPPSDEQLKSGTASVVCLLNNFYPREAKVQWKVDNALQSGNSQESVTEQDSKDSTYSLSSTLTLSKADYEKHKVYACEVTHQGLSSPVTKSFNRGEC
notes: Heterodimerized anti-glypican-3 IgG1; substitution in only one H chain; also called P271N; He Ab
Regarding B5, the He/Con_1a in assay [1] is 103 % of control (GpH7-A5/GpH7-B3/GpL16-k0 = 100). The He/Con_2b in assay [2] was 93.3 % of control (GpH7-A5/GpH7-B3/GpL16-k0 = 100).

B6: GpH7-A5/GpH7-B3 variant N325_09D/GpL16-k0 (antibody, human IgG1, kappa)
heavy 1: not shown
heavy 2: not shown
light: DIVMTQSPLSLPVTPGEPASISCQASESLVHSNRNTYLHWYLQKPGQSPQLLIYKVSNRFSGVPDRFSGSGSGTDFTLKISRVEAEDVGVYYCSQNTHVPPTFGQGTKVEIERTVAAPSVFIFPPSDEQLKSGTASVVCLLNNFYPREAKVQWKVDNALQSGNSQESVTEQDSKDSTYSLSSTLTLSKADYEKHKVYACEVTHQGLSSPVTKSFNRGEC
notes: as for B4
Turning to B6, the He/Con_2b with FcγRIIb is 124 % of control. In addition, the He/Con_1a in the assay with FcγRIa is 99.9 % of control.

B7: GpH7-A5/GpH7-B3 variant Q295_07I/GpL16-k0 (antibody, human IgG1, kappa)
heavy 1: not shown
heavy 2: not shown
light: DIVMTQSPLSLPVTPGEPASISCQASESLVHSNRNTYLHWYLQKPGQSPQLLIYKVSNRFSGVPDRFSGSGSGTDFTLKISRVEAEDVGVYYCSQNTHVPPTFGQGTKVEIERTVAAPSVFIFPPSDEQLKSGTASVVCLLNNFYPREAKVQWKVDNALQSGNSQESVTEQDSKDSTYSLSSTLTLSKADYEKHKVYACEVTHQGLSSPVTKSFNRGEC
notes: Heterodimerized anti-glypican-3 IgG1; substitution in only one H chain; also called Q295I; He Ab
As for B7, the He/Con_1a in assay [1] was 103 % of control (GpH7-A5/GpH7-B3/GpL16-k0 = 100). In addition, in assay [2], the He/Con_2b is 84.3 % of control (GpH7-A5/GpH7-B3/GpL16-k0 = 100).

B8: GpH7-A5/GpH7-B3 variant Q295_02A/GpL16-k0 (antibody, human IgG1, kappa)
heavy 1: not shown
heavy 2: not shown
light: DIVMTQSPLSLPVTPGEPASISCQASESLVHSNRNTYLHWYLQKPGQSPQLLIYKVSNRFSGVPDRFSGSGSGTDFTLKISRVEAEDVGVYYCSQNTHVPPTFGQGTKVEIERTVAAPSVFIFPPSDEQLKSGTASVVCLLNNFYPREAKVQWKVDNALQSGNSQESVTEQDSKDSTYSLSSTLTLSKADYEKHKVYACEVTHQGLSSPVTKSFNRGEC
notes: Heterodimerized anti-glypican-3 IgG1; substitution in only one H chain; also called Q295A; He Ab
Turning to B8, in assay [1], the He/Con_1a was 104 % of control (GpH7-A5/GpH7-B3/GpL16-k0 = 100). For the same molecule, in assay [2], the He/Con_2b is 79.7 % of control (GpH7-A5/GpH7-B3/GpL16-k0 = 100).

B9: GpH7-A5/GpH7-B3 variant P331_07I/GpL16-k0 (antibody, human IgG1, kappa)
heavy 1: not shown
heavy 2: not shown
light: DIVMTQSPLSLPVTPGEPASISCQASESLVHSNRNTYLHWYLQKPGQSPQLLIYKVSNRFSGVPDRFSGSGSGTDFTLKISRVEAEDVGVYYCSQNTHVPPTFGQGTKVEIERTVAAPSVFIFPPSDEQLKSGTASVVCLLNNFYPREAKVQWKVDNALQSGNSQESVTEQDSKDSTYSLSSTLTLSKADYEKHKVYACEVTHQGLSSPVTKSFNRGEC
notes: as for B4
Regarding B9, the He/Con_2b in the assay with FcγRIIb is 114 % of control. The He/Con_1a with FcγRIa is 93.4 % of control.
